# From US20150056208A1 (VILARA, published 2015)
# Where no end group is shown, it is not given here. [ ]: non-standard residue; d: D form. Cit = NC(=O)NCCC[C@H](N)C(=O)O
# T1: citrullinated human fibrinogen residues 36-52 (cit-fib) (human, also: biotinylated, place not given here)
# T1 construct: Biotinylated peptide on streptavidin plates (ELISA) or CAP chip (SPR); also called Fib36-52; cit fibrinogen
# T1 peptide: NEEGFFSA[Cit]GHRPLDKK
# T2: citrullinated human enolase peptide 1 (CEP-1) (human, cysteine pairing not given here; also: biotinylated form used in SPR, place not given here)
# T2 construct: Coated directly on plates in ELISA; biotinylated and captured on a CAP chip in SPR; also called cit a-enolase; citrullinated alpha-enolase peptide 1
# T2 peptide: CKIHA[Cit]EIFDS[Cit]GNPTVEC
# T3: citrullinated human vimentin residues 60-75 (cit-vim) (human, also: biotinylated, place not given here)
# T3 construct: Biotinylated peptide on streptavidin plates (ELISA) or CAP chip (SPR); also called Vim60-75; cit vimentin
# T3 peptide: VYAT[Cit]SSAV[Cit]L[Cit]SSVP
# B1: antibody A09 (antibody)
# chain 1: KSRTEIHSRVCGGHRAQLQGQLALGRVNGYGDSTLEGRVVVNAPTKVDNPNRLQPLPWGLADPHPVVTIIPNGASRDSAGEGQGLRRLHQSW
# chain 2: GPLSDLINDDFGGFAWVLLVPGDKSITHNITAACSAGDGDRLSRRPRHGGRLSQHRL
# Legend:
# Assay in all cases: SPR, peptide on CAP chip, 1:1 fit
# [1] = target: T1, citrullinated human fibrinogen residues …
# [2] = target: T2, citrullinated human enolase peptide 1 …
# [3] = target: T3, citrullinated human vimentin residues …
binder,measurement,setting,value
B1,Kd,[1],160 nM
same,koff,[1],0.0291 s⁻¹
same,koff,[2],0.0429 s⁻¹
same,Kd,[3],180 nM
same,koff,[3],0.0433 s⁻¹
